From patent WO2011161189A1 (dated 2011)
Each block holds one binder with its values, some of them ahead of it.

How the values were obtained:
[1] = biological target: T1, human hepsin (recombinant EE-tagged, amino acids 45-417, enzymatically active two-chain form) (human, UniProt P05981 45-417); experiment: Biacore (SPR)
T1 construct: range 45-417; The assays say only 'hepsin' or 'purified human hepsin'; also called hHepsin; purified hepsin

mouse hepsin = mouse hepsin (mouse, UniProt O35453 60-436, limits assumed); experiment: cell-based or functional assay
[2] = biological target: T1, human hepsin (recombinant EE-tagged, …); experiment: cell-based or functional assay
[3] = biological target: T1, human hepsin (recombinant EE-tagged, …); experiment: SPR kinetics, antibody captured on CM5 chip, hepsin injected, 298 K
cynomolgus hepsin = cynomolgus hepsin (cynomolgus monkey); experiment: cell-based or functional assay
[4] = biological target: T1, human hepsin (recombinant EE-tagged, …); experiment: enzyme kinetics (Ac-KQLR-AMC hydrolysis after preincubation), fit to tight binding inhibitor equations of the mixed type; apparent Ki

T1 sequence (P05981 other isoform, or with tags, fused parts or gaps limits assumed): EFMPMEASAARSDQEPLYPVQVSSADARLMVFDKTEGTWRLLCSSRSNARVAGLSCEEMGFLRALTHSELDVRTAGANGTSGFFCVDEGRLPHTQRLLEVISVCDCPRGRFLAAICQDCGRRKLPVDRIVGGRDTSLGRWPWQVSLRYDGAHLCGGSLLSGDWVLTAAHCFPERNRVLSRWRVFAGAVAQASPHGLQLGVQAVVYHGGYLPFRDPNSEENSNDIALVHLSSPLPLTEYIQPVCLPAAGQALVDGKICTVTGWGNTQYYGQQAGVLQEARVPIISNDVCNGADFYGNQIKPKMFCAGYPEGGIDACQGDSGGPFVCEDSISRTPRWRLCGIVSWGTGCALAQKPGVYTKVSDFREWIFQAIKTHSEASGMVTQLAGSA
Chain of mouse hepsin (O35453 60-436 limits assumed): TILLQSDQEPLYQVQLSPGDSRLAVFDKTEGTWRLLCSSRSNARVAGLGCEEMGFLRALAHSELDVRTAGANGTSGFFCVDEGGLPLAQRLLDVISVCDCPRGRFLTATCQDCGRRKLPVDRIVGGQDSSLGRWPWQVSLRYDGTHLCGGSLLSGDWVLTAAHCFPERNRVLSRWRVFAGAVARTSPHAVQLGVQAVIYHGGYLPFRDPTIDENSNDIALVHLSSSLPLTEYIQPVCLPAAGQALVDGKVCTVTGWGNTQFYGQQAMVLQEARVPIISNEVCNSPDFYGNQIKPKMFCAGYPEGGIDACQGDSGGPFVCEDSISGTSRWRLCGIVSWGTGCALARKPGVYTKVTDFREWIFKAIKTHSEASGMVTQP

B2: Mab 2.3.35 (antibody, V domains shown)
VH: QVQLQQSGPELVKPGASVKVSCKASGYTFTDFVINWVKQRTGQGLEWIGEIYPRSNSIYSNEKFKGKATLTTDKSSNTAYMQVSSLTSEDSAVYFCARGSGDYAMDYWGQGTSVTVSS
VL: ENVLTQSPAIMSASPGEKVTMTCSASSSVTYMHWYQQKSSTSPKLWIYDTSKLASGVPGRFSGSGSGNSYSLTIRSMEAEDVATYFCFQGSGFPLTFGGGTKLEIK
notes: also called antibody 2.3.35
Kd [1]: 22 nM
IC 50 in enzymatic activity assay of human hepsin [2]: 7 nM

B4: Mab53 (antibody, V domains shown)
VH: QVQLVQSGAEVKKPGASVKVSCKASGYTFTDYSMRWVRQAPGQGLEWMGWINTETGNPAYAQKFQGRVTMTRDTSTSTVYMELSSLRSEDTAVYYCARGFAYWGQGTLVTVSS
VL: QTVVTQEPSLTVSPGGTVTLTCRSSTGAVTTSNYANWVQQKPGQAFRGLIGDTNNRAPWTPARFSGSLLGGKAALTLSGVQPEDEAEYYCALWYSNHFIFGSGTKVTVL
notes: Humanized variant of Mab 2.7.35
Kd [3]: 36 nM

Continued, values first:

Kd [1]: 4 nM
IC 50 in enzymatic activity assay of murine hepsin (mouse hepsin): > 200 nM
IC 50 in enzymatic activity assay of human hepsin [2]: 14 nM
Kd [3]: 31.5 nM
B1: Mab 2.7.35 (antibody, V domains shown)
VH: QIQLVQSGPELKKPGETVKISCKASGYTFTDYSMRWVKQAPGKGLKWMGWINTETGNPTYADDFKGRFAFSLETSASTAYLQINNLKNEDTARYFCARGFAYWGQGTLVTVSA
VL: QAVVTQESALTTSPGETVTLTCRSSTGAVTTSNYANWVQEKPDHLFTGLIGDTNNRAPGVPARFSGSLIGDKAALTITGAQTEDEAIYFCALWYSNHFIFGSGTKVTVL
notes: Mouse monoclonal antibody from Balb/c hybridoma; also called mouse Mab 2.7.35; mH35

IC 50, human hepsin inhibition assay (FRET peptide substrate) [2]: 1.02 nM
inhibition increase compared to the chimeric antibody [2]: 6.7 fold
inhibition increase compared to the murine antibody [2]: 14.7 fold
IC 50, cynomolgous hepsin assay (FRET peptide substrate) (cynomolgus hepsin): 0.99 nM
Kd [3]: 7.1 nM
Ki [4]: 0.39 nM
B3: Mab55 (antibody, V domains shown)
VH: QVQLVQSGSELKKPGASVKVSCKASGYTFTDYSMRWVRQAPGQGLEWMGWINTETGSPTYADDFKGRFVFSLDTSVSTAYLQISSLKAEDTAVYYCARGFAYWGQGTLVTVSS
VL: B4 VL
notes: Humanized variant of Mab 2.7.35, stably expressed in CHO; also called hH35; humanized antibody Mab55
